Substrate in data set [1]: OC[C@H]1O[C@@H](O[C@H]2[C@H](O)[C@@H](O)[C@H](O[C@H]3[C@H](O)[C@@H](CO)OC(O)[C@@H]3O)O[C@@H]2CO)[C@H](O)[C@@H](O)[C@@H]1O
Briefly: purified protein, by the assay type. As to conditions: other: PAHBAH assay, 100 mM HEPES pH 6.5, 37 °C.

Substrate in data set [2]: OC[C@H]1O[C@@H](O[C@H]2[C@H](O)[C@@H](CO)OC(O)[C@@H]2O)[C@H](O)[C@@H](O)[C@@H]1O
Briefly: purified protein, by the assay type. As to conditions: other: PAHBAH assay, 100 mM HEPES pH 6.5, 37 °C.

Substrate in data set [3]: OC[C@H]1O[C@@H](O[C@@H]2[C@@H](O)[C@H](O[C@H]3[C@H](O)[C@@H](CO)OC(O)[C@@H]3O)O[C@H](CO)[C@H]2O)[C@H](O)[C@@H](O)[C@@H]1O
Briefly: purified protein, by the assay type. Particulars: other: PAHBAH assay, 100 mM HEPES pH 6.5, 37 °C.

Substrate in data set [4]: OC[C@H]1O[C@@H](O[C@H]2[C@H](O)[C@@H](O)[C@H](O[C@H]3[C@H](O)[C@@H](O)C(O)O[C@@H]3CO)O[C@@H]2CO)[C@H](O)[C@@H](O)[C@@H]1O
Briefly: purified protein, by the assay type. As to conditions: other: PAHBAH assay, 100 mM HEPES pH 6.5, 37 °C.

Substrate in data set [5]: OC[C@H]1O[C@@H](O[C@H]2[C@H](O)[C@@H](O)[C@H](O[C@H]3[C@H](O)[C@@H](O)[C@H](O[C@H]4[C@H](O)[C@@H](O)C(O)O[C@@H]4CO)O[C@@H]3CO)O[C@@H]2CO)[C@H](O)[C@@H](O)[C@@H]1O
Briefly: purified protein, by the assay type. Particulars: other: PAHBAH assay, 100 mM HEPES pH 6.5, 37 °C.

Substrate in data set [6]: OC[C@H]1O[C@@H](O[C@H]2[C@H](O)[C@@H](O)[C@H](O[C@H]3[C@H](O)[C@@H](O)[C@H](O[C@H]4[C@H](O)[C@@H](CO)OC(O)[C@@H]4O)O[C@@H]3CO)O[C@@H]2CO)[C@H](O)[C@@H](O)[C@@H]1O
Briefly: purified protein, by the assay type. As to conditions: other: PAHBAH assay, 100 mM HEPES pH 6.5, 37 °C.

Substrate in data set [7]: O=C[C@H](O)[C@@H](O)[C@H](O[C@@H]1O[C@H](CO)[C@@H](O)[C@H](O)[C@H]1O)[C@H](O)CO
The data set is described as follows: purified protein, by the assay type. Particulars: other: PAHBAH assay, 100 mM HEPES pH 6.5, 37 °C.

Substrate in data set [8]: OC[C@H]1O[C@@H](O[C@H]2[C@H](O)[C@@H](O)[C@H](O[C@H]3[C@H](O)[C@@H](CO)OC(O)[C@@H]3O)O[C@@H]2CO)[C@H](O)[C@@H](O)[C@@H]1O
Briefly: Phosphorolysis kinetics of BpGH94MLG (PAHBAH assay). Type of data set: biochemical, Blautia producta ATCC 27340. As to conditions: other: phosphorolytic reaction, pH 6.5, 37.0 °C. The procedure: (§1) TLC was used for analyzing enzymatic actions. […] Kinetics parameters for BpGH94MLG were determined with G4G3G, G4G4G3G and cellotriose, following a p-hydroxybenzoic acid hydrazide (PAHBAH) reducing sugar assay ([69]).

Substrate in data set [9]: OC[C@H]1O[C@@H](O[C@H]2[C@H](O)[C@@H](O)[C@H](O[C@H]3[C@H](O)[C@@H](O)C(O)O[C@@H]3CO)O[C@@H]2CO)[C@H](O)[C@@H](O)[C@@H]1O
The description is as above. Particulars: other: phosphorolytic reaction, pH 6.5, 37.0 °C. It is filed as biochemical, Blautia producta ATCC 27340. The procedure:
as §1

Substrate in data set [10]: OC[C@H]1O[C@@H](O[C@H]2[C@H](O)[C@@H](O)[C@H](O[C@H]3[C@H](O)[C@@H](O)[C@H](O[C@H]4[C@H](O)[C@@H](CO)OC(O)[C@@H]4O)O[C@@H]3CO)O[C@@H]2CO)[C@H](O)[C@@H](O)[C@@H]1O
Described as above. Type of data set: biochemical, Blautia producta ATCC 27340. As to conditions: other: phosphorolytic reaction, pH 6.5, 37.0 °C. The procedure:
as §1

Substrate in data set [11]: OC[C@H]1O[C@@H](O[C@H]2[C@H](O)[C@@H](O)[C@H](O[C@H]3[C@H](O)[C@@H](CO)OC(O)[C@@H]3O)O[C@@H]2CO)[C@H](O)[C@@H](O)[C@@H]1O
Briefly: purified protein, by the assay type. It is filed as biochemical, Blautia producta ATCC 27340. Particulars: other: PAHBAH assay, 100 mM HEPES pH 6.5, 37 °C.

Substrate in data set [12]: OC[C@H]1O[C@@H](O[C@@H]2[C@@H](O)[C@H](O[C@H]3[C@H](O)[C@@H](CO)OC(O)[C@@H]3O)O[C@H](CO)[C@H]2O)[C@H](O)[C@@H](O)[C@@H]1O
The data set is described as follows: purified protein, by the assay type. Particulars: other: PAHBAH assay, 100 mM HEPES pH 6.5, 37 °C. It is filed as biochemical, Blautia producta ATCC 27340.

Substrate in data set [13]: OC[C@H]1O[C@@H](O[C@H]2[C@H](O)[C@@H](O)[C@H](O[C@H]3[C@H](O)[C@@H](O)[C@H](O[C@H]4[C@H](O)[C@@H](CO)OC(O)[C@@H]4O)O[C@@H]3CO)O[C@@H]2CO)[C@H](O)[C@@H](O)[C@@H]1O
Briefly: purified protein, by the assay type. As to conditions: other: PAHBAH assay, 100 mM HEPES pH 6.5, 37 °C. Type of data set: biochemical, Blautia producta ATCC 27340.

B1: BpGH3-X62MLG (Blautia producta ATCC 27340 = DSM 2950) (protein)
chain: MENKYVIDWDKYAALARRAAAEGAVLLKNDNQALPLKKETISVFGRIQYHYYKSGTGSGGLVNAKYVIGIMDALQEEKDLTLDEELAAVYRSWIMEHPFDQGSGWAQEPWSQEEMPLDEKMVEEAAARSDTAVIVIGRTAGEDRDASAEKGSYLLTDLEEDMLEKVCRLFKKSIVVLNVGNIIDMKWVEKYNPSAVLYTWQGGQEGGHSAADVLTGRVNPCGKLADTIARDISDYPSTENFGGGDFDIYAEDIYVGYRYFETFARDKVLYPFGFGLSYTSFRTECGPIKRLDGETSVCVKVTNAGSCAGKEVVQMYVEPPQGKLGKPSRNLAAFAKTKCLQPGESQELVLKVTDYYISSYDDSGAAGFKSCYVLENGSYGIYVGTDVRGAEAAGSFYIPETIATSVCTEAAGPVRQFKRMRAKEGGALAWEEAPLRTHKMQERIHKEILPDITYTGNKGFTLGEVFDRDISLNEFLAQLSEEDLCCIVRGEGMCSPKVTPGTAAAFGGVTESLQKLGIPCGCCADGPSGIRMDCGTPAFSMPNGTCLACTFDTELSEELYEMEGAELRKNRIDTLLGPGINIHRNPLNGRNFEYFSEDPYLTGIMASAQLKGMARFGVTGTIKHFAANNQEYHRRLLDSVMSERALREIYLRGFEIAVKEGKAYSIMTTYGAINGLWTASNYDLLTTILRKEWGFEGMVMTDWWADLNDEGGQPSTDNLAAMVRSQNDVYMVTQDSLNNKDNLMESLKNGTLKRGALLRCAGNICRMLMRSPVMERTLGRMSEEEKKAGEVMAGEDKVDFDITYHKVQGSLVLDGTKIDTSKGNSVVYGILLDTFGSYKVRLKVKADSGELAQIPVSVFANGHLEGTVTINGTKGEWIEIEKTIGPLFGPHNYVRLYFAQSGMQIQTVTIELQEKMDRGF
For the protein B1, the Km in data set [1] is 230 ± 40 µM; in data set [4] it was 260 ± 30 µM; in data set [5] it was 450 ± 60 µM; in data set [6], 250 ± 50 µM; in data set [7] it was 200 ± 30 µM. Besides, the kcat in data set [1] turned out to be 17 ± 0.3 s⁻¹; in data set [2], 12 ± 0.2 s⁻¹; in [3], 12 ± 0.2 s⁻¹; in data set [4], 15 ± 0.2 s⁻¹; in data set [5] it was 19 ± 0.3 s⁻¹; in data set [7], 8 ± 0.01 s⁻¹. Also, the specificity constant (kcat/Km) is 73000 M⁻¹ s⁻¹ in [1]; 48000 M⁻¹ s⁻¹ in [2]; 51000 M⁻¹ s⁻¹ in data set [3]; 59000 M⁻¹ s⁻¹ in [4]; 43000 M⁻¹ s⁻¹ in data set [5]; 38000 M⁻¹ s⁻¹ in data set [7].

B2: BpGH94MLG (Blautia producta) (protein)
chain: MKYGYFDEEKKEYVITRPDTPAPWVNYLGSPEYGAIISNNAGGYSFEKSGANGRILRYVFNNFDQPGRYIYIRDQENKDFWSASWQPVGKPQDVYQCECRHGTAYTNMRAEYSEISSEVLYYVPLGAAYEVWRLRLTNNSDRPRNLCVTGYAEFTNNSNYEQDQVNLQYSQFITQTAFRGNRICQMIHANLDQLEPGKDVDDKQVTERFFGLAGNPVTSWCGDKDGFLGRYHGYDAPKGVIEGKLSCLPNYNGNGCGALSSDFVLKPGEAKEVVFVLGMKKDAEVEEILKRYEIPETVCREEFHKLVKYWHGYLSHFQVKTPSREFNTMVNTWNAYNCFMTFIWSRAASFIYCGLRNGYGYRDTVQDIQGIIHLAPDMALEKIRFMLSAQADNGGGLPLVKFTHNPGHEDTPDDASYVKETGHPAYRADDALWLFPTVYKYIAETGNMDFIDEVIPFANRGKATVYEHLKRAVKFSMDHLGRHGMPAGLYADWNDCLRLGKDGESTFVAMQFYYAMTILKKFAKYKKDVEYMEFLCERQKKLEELIQKFCWDEGRFIRGFTENGEIIGKSTDPEANMWLNPQSWAVISGVANEEQADRVLDVVEKRLNTEYGLVLMDPPYHAHAFDGALAVIYNPGTKENAGIFSQSQGWIILAEALRGHGERAFTYFMENAPAAQNDRADIRKLEPYCYGQFTEGKDSPNFGRSHVHWLTGTASTIMVGCVEGILGIRPDFYGIRLAPAIPKEWEEYEVEKDFRGCHLHIKVKNPGHVESGCEKLVVNGNVVTGSYIPADLLTEQTDIELFIS
In the case of B2, in [8], the Michaelis-Menten constant (Km) amounted to 52 ± 5 µM, the turnover number (kcat) was 1.86 ± 0.022 s⁻¹ and the kcat/Km came out at 35700 M⁻¹ s⁻¹. Further, in [9], the Km came out at 28 ± 4 µM, the kcat amounted to 0.67 ± 0.021 s⁻¹ and the kcat/Km was determined as 23900 M⁻¹ s⁻¹. For the same protein, in data set [10], the Km worked out at 21 ± 2 µM, the kcat was 1.21 ± 0.014 s⁻¹ and the kcat/Km was 57600 M⁻¹ s⁻¹.

B3: BpGH3-AR8MLG (Blautia producta ATCC 27340 = DSM 2950) (protein)
chain: MKLKNKTFTGTTSNEVTARETENRKLARLAAAEGFVLLKNQDHILPLKKGIKLGLYGAGAVKTIKGGTGSGDVNERECVNICQGLENAGYEITSSAWLEAYASLYEETRLKWRDEILGKLEAYDNNFFEAYSTTPFFMPCGNPVDVDKASDDGADTAIYVLSRIAGENADRHDTEGDYYISAEEKALIAQLSKAYDSLVLVINTGGLVDLAFVQEFDNIKAVLQFVQAGQEGGSAFADVVSGKVTPSGKLADTWAFDYKDYPNSETFSFKNGDVNTEKYQEGIYVGYRYFDTFDVPVLYPFGFGLSYTDFMICTEEIKTVNTESGKPEIAVTVKVTNTGDTYCGKEVVQIYVSCPQGKLAKEYRRLAGFAKTEELKPGESCRITITFPVYQLASFHEENAAWVLEEGTYGVWTGNSIQGAKLAGSLCVDKDAILVQCEHICPVKEELTELTPDSSRMKEKEAAWLEKAAGLPSVHIDAEKITKETVVYTELPERFTGRAGEIVESLSVEQLIQMSAGDPGKGQDAVLGSAGITVPGAAAETSSAASGEPWNLPSIALADGPAGLRLNQKYQVVDGEIVRENFMKSIEKGFFAEPSPEVGTAYYQFCTAIPVGTLLAQTWNAELVKEVGEMIGKEMELFQVTLWLAPGMNIHRNPLCGRNFEYYSEDPLLSGIMASAMTLGVQKVPGCGTTIKHFACNNQEDNRMGSDSVLSERALREIYLKGFEIAVKNSQPMSIMTSYNMINGVHAANCYDICTRAARDEWEFAGAVMTDWTTTFASPRGECTAAGCMRAGNDMVMPGIPKDHENIRRELEEGTLDIRELKRCICNTVNLILQSNRYENAVSYLEQFEGLDAYLSVERSN
Turning to B3, in data set [11], the kcat came to 17 ± 0.3 s⁻¹ and the kcat/Km was determined as 71000 M⁻¹ s⁻¹. In data set [12], the Km was determined as 230 ± 50 µM, the kcat is 12 ± 0.2 s⁻¹ and the kcat/Km was found to be 52000 M⁻¹ s⁻¹. Moreover, in [13], the Km came to 300 ± 40 µM, the turnover number (kcat) amounted to 20 ± 0.3 s⁻¹ and the catalytic efficiency (kcat/Km) came to 67000 M⁻¹ s⁻¹.

The Km is the concentration of substrate that gives half-maximal velocity. The kcat is the number of substrate molecules converted per active site and unit of time at saturation. By kcat/Km is commonly meant the second-order rate constant that governs catalysis at low substrate concentration.

The values are drawn from publication PMC10318527, “Utilization of dietary mixed-linkage β-glucans by the Firmicute Blautia producta” (The Journal of Biological Chemistry, 2023).
